Consider three molecules from patent US20080305097A1, “Use of Protease or a Protease Inhibitor for the Manufacture of Medicaments” (YEDA RESEARCH AND DEVELOPMENT CO., LTD., priority 2004, published 2008).

For experiment [1], the system named is TRAP+ multinucleated osteoclasts. The experiment is described as follows: Osteoblast/BM co-culture, TRAP+ multinucleated osteoclast count. It counts as cell-based, mouse. As to conditions: G-CSF 50 ng/ml, HGF 50 ng/ml, SDF-1 10 and 100 ng/ml; 5 days. The method, then: Osteoclast precursors are stimulated by cell-cell contact with osteoblasts to become activated multinucleated TRAP+ bone resorbing cells. To obtain active osteoclasts in vitro, a clvarian osteoblasts are incubated with Vitamine D3 and PG2E which potentiate their M-CSF production and RANKL expression, needed for osteoclast activation. BM cells which contain osteoclast precursors are seeded then on the osteoblast monolayer, for 5 days, to obtain active multinucleated osteoclasts.
A co-culture of primary mouse osteoblasts and BM (containing ocl precursors as detailed above) was seeded in the presence of G-CSF (50 ng/ml), HGF (50 ng/ml), or SDF-1 (10 and 100 ng/ml). Five days later, TRAP+ multinucleated osteoclasts in the cultures were stained (as described in Example 1) and counted 5 days later.

Experiment [2] deals with SDF-1. The experiment in a line: SDF-1 transcription (RT-PCR) and secretion (ELISA) in primary calvaria osteoblasts. As to conditions: 50 ng/ml, 3 days. It counts as cell-based, mouse. The protocol: Osteoblast were incubated with G-CSF, HGF or remained untreated, and SDF-1 transcription and expression was determined in such cells (FIG. 9).
Primary calvaria osteoblasts were cultured for 3 days in the presence of SDF-1 (PeproTech, 100 […]), HGF (PeproTech, 50 ng/ml) and G-CSF (Filgrastin, Roche, 50 ng/ml). Conditioned media was collected to determine SDF-1 concentration by ELISA, as described in Example 2. Determination of SDF-1 transcription and expression as in Example 2.
(In general: In an ELISA, binding on a coated surface is turned into a signal by an enzyme label.)

The subject of experiment [3] is TRAP+ active osteoclasts. The experiment is described as follows: In vivo osteoclast activation by RANKL, TRAP staining. The conditions noted are these: RANKL 2 daily subcutaneous injections of 5 mcg for 3 days. Details: species or system Balb/c mice. The protocol: (§1) Balb/c mice were injected with soluble murine RANKL (2 injections per day, 5 mcg per subcutaneous injection). Bones of treated mice were stained for TRAP (in red) indicating mature activated osteoclasts (A). Levels of MMP-9 in BM fluids were determined by zymography assay (B). The expression of CTK mRNA was detected by RT-PCR (C).
(§2) Mice were administrated with RANKL as follows: 2 daily subcutaneous injections of 5 mcg for 3 days and after two more days in the absence of RANKL. The following parameters were monitored in both treated and control untreated mice: TRAP+ activated osteoclasts (FIG. 11A), induction of osteoclast proteases MMP-9 (FIG. 11B) and CTK (FIG. 11C) in the BM and mobilization (FIG. 12).

The subject of experiment [4] is MMP-9. The experiment in a line: MMP-9 in BM after RANKL, zymography. It is filed as in vivo, Balb/c mice. As to conditions: RANKL 2 daily subcutaneous injections of 5 mcg for 3 days. The method, then: as §1, §2
Experiment [5] concerns CTK. The experiment in a line: CTK expression in BM after RANKL, RT-PCR. As to conditions: RANKL 2 daily subcutaneous injections of 5 mcg for 3 days. It counts as in vivo, Balb/c mice. The method, then:
as §1, §2

The test system of experiment [6] is progenitors. The experiment is described as follows: Progenitor mobilization by RANKL, semisolid cultures. It is filed as in vivo, Balb/c mice. The conditions noted are these: RANKL 2 daily subcutaneous injections of 5 mcg for 3 days. The protocol:
(A) Progenitor mobilization assayed in semisolid cultures, induced by SDF-1 (10 mcg), HGF (1.5 mcg) injected for 5 days and sRANKL (2×5 mcg) injected for the first 3 days. (B) RANKL induced mobilization is inhibited by administration of anti CXCR4 antibodies (10 mcg) and MMP2/9 inhibitor (100 mcg), injected for the last 2 days. (C) Osteoclast precursors in the BM of treated mice were assayed by culturing BM cells for 4 days with M-CSF and sRANKL, followed by TRAP staining to detect mature active osteoclasts.
as §2

For experiment [7], the system named is SDF-1. The experiment is described as follows: Migration of Pre B ALL G2 cells towards CTK treated SDF-1. It counts as cell-based. The conditions noted are these: SDF-1 125 ng, CTK 1 mcg/ml, about 16 hours, 37° C. The method, then: We employed an in-vitro functional assay for SDF-1 (Example 10) to check the effect of CTK on SDF-1 activity. The assay consisted on migration of leukemic Pre B ALL G2 (cells which migrate very well to relative low concentrations of SDF-1, Spiegel, Blood, 2004) to SDF-1.
In brief, SDF-1 (125 ng) was incubated with CTK ([…]) in a 100 ul reaction volume adjusted with PBS, for about 16 hours in 37° C. In some samples, protease inhibitor (PI, 1 ul, Sigma, containing the cystein protease inhibitor E-64) was preincubated with CTK for 1.5 hrs, in 37° C., before SDF-1 was added. The leukemic Pre B ALL G2 cells were loaded on transwells and migration towards CTK treated as well as non treated SDF-1 was measured.
125 ng/ml SDF-1α was kept untreated or incubated with CTK (1 mcg/ml) for overnight in 37° C. To inhibit enzymatic activity of CTK, 1 and 2 mcl of protease inhibitor (Sigma) was incubated with CTK for 1.5 h before adding to SDF-1. RPMI (600 μl) supplemented with 10% FCS was added with tested SDF-1 to the lower chamber of a Costar 24-wells transwell (Corning (pore size 5 μm), NY). 1×10^5 pre B ALL G2 cells in 100 μl medium were loaded to the upper chamber and were allowed to migrate for 4 hours at 37° C. Migrating cells were collected from the lower chamber and counted for 60 seconds using a FACSCalibur. Control spontaneous migration was performed without SDF-1α in the lower chamber.

In experiment [8] the test system is SDF-1. The experiment in a line: SDF-1 cleavage by CTK, SDS-PAGE and blot with anti SDF-1 polyclonal Ab or K15C. It counts as biochemical. The conditions noted are these: SDF-1 20 ng, CTK 1.76 ug/ml. The method, then:
SDF-1 (20 ng) was incubated with CTK (1.76 ug/ml) for 0, 15, 30, and 60 minutes at 37OC. Samples were subjected than to SDS-PAGE, blotted and detected with anti SDF-1 polyclonal Ab or with the monoclonal Ab K15C, which specifically binds the amino terminal part of the chemokine.
We further explored the kinetics of SDF-1 cleavage by CTK at a time scale of minutes (FIG. 14). Samples of SDF-1 (20 ng) were incubated with CTK (1.76 ug/ml) for 0, 15, 30, 60, 120 and 240 minutes at 37° C. After collection, the samples were subjected to SDS-PAGE and blotted and detected with anti SDF-1 polyclonal Ab (R&D) or with the monoclonal Ab K15C which specifically binds the amino terminal part of the chemokine.

B1: G-CSF: granulocyte colony-stimulating factor (Filgrastin, Roche) (protein, UniProt P09919 31-207, looked up)
Granulocyte …: TPLGPASSLPQSFLLKCLEQVRKIQGDGAALQEKLVSECATYKLCHPEELVLLGHSLGIPWAPLSSCPSQALQLAGCLSQLHSGLFLYQGLLQALEGISPELGPTLDTLQLDVADFATTIWQQMEELGMAPALQPTQGAMPAFASAFQRRAGGVLVASHLQSFLEVSYRVLRHLAQP
modifications: filgrastim
Consider B1, for which the “level of activated TRAP+ osteoclasts” value in experiment [1] was “significantly increased”. Besides, in experiment [2], the “SDF-1 transcription in osteoblasts” value is on record as “induce”. Also, the “SDF-1 production in osteoblasts” value in experiment [2] (conditioned media ELISA) is recorded as “induce”.

B2: RANKL: Receptor Activator of NK-kappaB Ligand, soluble murine, osteoclast differentiating factor (protein, UniProt O35235 70-316, looked up)
extracellular domain: YFRAQMDPNRISEDSTHCFYRILRLHENADLQDSTLESEDTLPDSCRRMKQAFQGAVQKELQHIVGPQRFSGAPAMMEGSWLDVAQRGKPEAQPFAHLTINAASIPSGSHKVTLSSWYHDRGWAKISNMTLSNGKLRVNQDGFYYLYANICFRHHETSGSVPTDYLQLMVYVVKTSIKIPSSHNLMKGGSTKNWSGNSEFHFYSINVGGFFKLRAGEEISIQVSNPSLLDPDQDATYFGAFKVQDID
modifications: extracellular domain
In the case of B2, in experiment [3], the “formation of TRAP+ active osteoclasts” value is listed as “induced formation of TRAP+ active osteoclasts along the endosteum”. In addition, the “MMP-9 expression in the bone marrow” value in experiment [4] is “induction”. In experiment [5], the “CTK expression in the bone marrow” value is recorded as “induction”. Besides, the mobilization of progenitors entry in experiment [6] is on record as “mobilization of progenitors”.

B3: CTK: cathepsin K, lysosomal cysteine protease, the major osteoclast bone resorbing enzyme (protein, UniProt P43235 115-329, looked up)
Cathepsin K: APDSVDYRKKGYVTPVKNQGQCGSCWAFSSVGALEGQLKKKTGKLLNLSPQNLVDCVSENDGCGGGYMTNAFQYVQKNRGIDSEDAYPYVGQEESCMYNPTGKAAKCRGYREIPEGNEKALKRAVARVGPVSVAIDASLTSFQFYSKGVYYDESCNSDNLNHAVLAVGYGIQKGNKHWIIKNSWGENWGNKGYILMARNKNNACGIANLASFPKM
As to B3, in experiment [7], the “chemotactic activity of SDF-1 after incubation with CTK” value is on record as “abolished”. Also, the “kinetics of SDF-1 cleavage by CTK” value in experiment [8] (0-240 minutes, 37° C.) is “fast and site specific SDF-1 cleavage”. The “site of SDF-1 cleavage by CTK” value in experiment [8] (detection with K15C (amino terminal part)) is “N-terminally cleaved”.
